Measured values: US20260000643A1, “Combination Of Curaxins And Immune Checkpoint Inhibitors For Treating Cancer” (Institute For Cancer Research d/b/a The Research Institute …, priority 2022, published 2026)

B1: IFNγ: inflammatory cytokine of the tested panel (protein, UniProt P01579 24-161, looked up)
Interferon gamma: QDPYVKEAENLKKYFNAGHSDVADNGTLFLGILKNWKEESDRKIMQSQIVSFYFKLFKNFKDDQSIQKSVETIKEDMNVKFFNSNKKKRDDFEKLTNYSVTDLNVQRKAIHELIQVMAELSPAAKTGKRKRSQMLFRG
B2: TRAIL: inflammatory cytokine of the tested panel (protein, UniProt P50591 1-281, looked up)
Tumor necrosis factor ligand …: MAMMEVQGGPSLGQTCVLIVIFTVLLQSLCVAVTYVYFTNELKQMQDKYSKSGIACFLKEDDSYWDPNDEESMNSPCWQVKWQLRQLVRKMILRTSEETISTVQEKQQNISPLVRERGPQRVAAHITGTRGRSNTLSSPNSKNEKALGRKINSWESSRSGHSFLSNLHLRNGELVIHEKGFYYIYSQTYFRFQEEIKENTKNDKQMVQYIYKYTSYPDPILLMKSARNSCWSKDAEYGLYSIYQGGIFELKENDRIFVSVTNEHLIDMDHEASFFGAFLVG
B3: IL-1α: inflammatory cytokine of the tested panel (protein, UniProt P01583 113-271, looked up)
Interleukin-1 alpha: SAPFSFLSNVKYNFMRIIKYEFILNDALNQSIIRANDQYLTAAALHNLDEAVKFDMGAYKSSKDDAKITVILRISKTQLYVTAQDEDQPVLLKEMPEIPKTITGSETNLLFFWETHGTKNYFTSVAHPNLFIATKQDYWVCLAGGPPSITDFQILENQA

test system: ADAR1 KO FLAG-ZBP1 MEFs; test: Cytokine-induced ZBP1-dependent cell death in ADAR1-deficient MEFs; assay type: cell-based, murine; conditions: cytokines 100 ng/mL, viability at 48 hours
From the text: Immortalized Zbp1^−/− stably reconstituted with FLAG-ZBP1 MEFs were transiently transfected with TrueGuide Synthetic sgRNA against mouse Adar1 (ThermoFisher Scientific, CRISPR162007 SGM) and TrueCut Cas9 Protein (ThermoFisher Scientific, A36499) by Lipofectamine CRISPRMAX Cas9 Transfection Reagent (ThermoFisher Scientific, CMAX00008). After two days, cells were harvest and examined ADAR1 protein level by western blot.

| Molecule | ZBP1-dependent cell death in ADAR1-deficient MEFs |
| --- | --- |
| TNFα | not |
| B1 | induced ZBP1-dependent cell death |
| B2 | not |
| B3 | not |
